From patent US20120115739A1

Assays:
[1] = biological target: pepIII peptide (PepIII portion of EGFRvIII), 13-mer …; assay: eluted supernatant mixed with pepIII-conjugated beads and free pepIII competitor in the second round, flow cytometry
[2] = biological target: pepIII peptide (PepIII portion of EGFRvIII), 13-mer …; assay: eluted supernatant of unblocked sample rebound to pepIII-conjugated beads, flow cytometry
[3] = biological target: pepIII peptide (PepIII portion of EGFRvIII), 13-mer …; assay: eluted supernatant of sample blocked with free pepIII in the first round of binding, rebound to pepIII-conjugated beads, flow cytometry

antibody level (FIG. 2, fluorescence) [1]: 2.57
antibody level (FIG. 2, fluorescence) [2]: 31.2
antibody level (FIG. 2, fluorescence) [3]: 2.21
Substance: L8A4 anti-pepIII monoclonal antibody
